We go through one sequence from patent US20210369812A1, “OSTEOINDUCTIVE PEPTIDES, COMPOSITIONS, IMPLANTS, AND METHODS OF USE” (The Board of Regents of the University of Oklahoma, priority 2018, published 2021).

In this experiment the target is T1, BMPR2 (Homo sapiens, UniProt Q13873).
T1 construct: purchased G&P Biosciences
T1 sequence (Q13873 27-150 limits assumed): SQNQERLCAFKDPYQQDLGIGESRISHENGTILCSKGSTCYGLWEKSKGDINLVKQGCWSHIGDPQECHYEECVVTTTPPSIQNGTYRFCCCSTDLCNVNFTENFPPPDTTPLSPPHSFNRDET
Nature of the experiment: Enzyme-linked immune sorbent assay for receptor binding (BMPR2). As to conditions: peptide on p3 of M13 phage; absorbance 450 nm; n=4; vs wild type phage. The source says: Groups having the same lowercase letter assigned (above the bar) were not statistically different from each other. Groups having different letters assigned (above the bar) were statistically different from each other. […] The primary antibody was mouse anti-g3p (p8) IgG. The secondary antibody was anti-mouse IgG conjugated with horseradish peroxidase. The substrate, 3,3′,5,5′-Tetramethylbenzidine was detected at 450 nm after stopping the reaction with 1 M HCl.
Blocking buffer (0.1 M NaHCO3 (pH 8.6), 5 mg/ml BSA. Filter sterilized, stored at 4° C.) was prepared. TBS (50 mM Tris-HCl (pH 7.5), 150 mM NaCl, autoclaved, stored at room temperature) was prepared. Separate solutions of the target receptors were then made. For BMPR1A, a 10 μg/ml stock solution was made. For BMPR2, a 10 μg/ml solution was also made. Separate wells with n=4 for each different peptide bearing phage group were then coated with one of the receptors. […] After a brief pilot test, it should be noted that using 10^10 phage/ml was determined to work best, but other concentrations of virus also worked consistently. […] Then, […] of freshly prepared 3,3′,5,5′-Tetramethylbenzidine (TMB) was added to each well and the absorbance at 370 nm and 652 nm was monitored for 1 hour using an ELISA plate reader. […] The absorbance at 450 nm for each well was then measured.

Regarding “SGTQDSMVGWNK (Completely synthesized in the lab - Ph.D.-12 Phage Display Peptide Library Kit (New England Biolabs))”, the “Relative binding strength in ELISA to BMPR2” value is listed as “statistically significant binders”.
